# Laboratory results taken from patent US20060205037A1, “Modified transferrin fusion proteins” (priority 2003, published 2006).
# Legend:
# diabetic db/db mice = assay: overnight fast and IPGTT in diabetic mice after SC administration; format: in vivo; settings: SC at 9 pm, fasted overnight; GLP-1-Tf 1 or 10 mg
# Method: A group of diabetic mice were given Tf or GLP-1-Tf via SC administration at 9 pm, fasted overnight and an IPGTT performed the next morning. The fasted Tf-treated animals had lower fasting blood glucose than ad libitum fed animals (238±39 versus 358±23 mg/dl; compare 0 time/fasted animals of FIG. 10c with 0 time/fed animals of FIG. 10a), and additionally, the animals given 1 or […] had lower fasting blood glucose (132±27 mg/dl) than those given Tf alone.
# db/db mice = assay: β-cell proliferation (BrdU) and β-cell mass in db/db mice; format: in vivo; settings: 10 mg/kg IP, third day
# Method: db/db mice, 6 per time point, received one IP injection of Tf (10 mg/kg) or GLP-1-Tf (10 mg/kg) and were sacrificed 1, 2 and 3 days later for measurement of β-cell proliferation and 3, 5, 8 and 10 days later for measurement of islet mass. Sixty mg/kg 5-bromo-2-deoxyuridine (BrdU, Sigma) was injected IP 6 hours before sacrifice. BrdU is a thymidine analog that is incorporated during S-phase of cell mitosis. Pancreata were removed, fixed overnight in 4% buffered formalin, processed for embedding in paraffin and histological sections (4 μm) mounted on poly-1-lysine-coated glass slides. BrdU was detected with a BrdU antibody (Sigma, 1:500 and also confirmed with Zymed antibody, 1:250) and BrdU staining kit (Zymed Laboratories Inc). Five to six hundred islets from each condition were then visualized and the number of islets that contained BrdU+ cells as well as the percent BrdU+ nuclei per total number of islet cells was quantified. For insulin staining and determination of β-cell mass histological sections were treated with a guinea-pig insulin antibody (Linco). […] The total pancreatic area and β-cell positive area for every image were quantified using MetaMorph 4.6.3 software (Universal Imaging Inc., West Chester).
molecule,measurement,setting,value
"Tf: transferrin with the two N-linked glycosylation sites eliminated, expressed in S. cerevisiae; control protein (protein) VPDKTVRWCAVSEHEATKCQSFRDHMKSVIPSDGPSVACVKKASYLDCIRAIAANEADAVTLDAGLVYDAYLAPNNLKPVVAEFYGSKEDPQTFYYAVAVVKKDSGFQMNQLRGKKSCHTGLGRSAGWNIPIGLLYCDLPEPRKPLEKAVANFFSGSCAPCADGTDFPQLCQLCPGCGCSTLNQYFGYSGAFKCLKDGAGDVAFVKHSTIFENLANKADRDQYELLCLDNTRKPVDEYKDCHLAQVPSHTVVARSMGGKEDLIWELLNQAQEHFGKDKSKEFQLFSSPHGKDLLFKDSAHGFLKVPPRMDAKMYLGYEYVTAIRNLREGTCPEAPTDECKPVKWCALSHHERLKCDEWSVNSVGKIECVSAETTEDCIAKIMNGEADAMSLDGGFVYIAGKCGLVPVLAENYNKADNCEDTPEAGYFAVAVVKKSASDLTWDNLKGKKSCHTAVGRTAGWNIPMGLLYNKINHCRFDEFFSEGCAPGSKKDSSLCKLCMGSGLNLCEPNNKEGYYGYTGAFRCLVEKGDVAFVKHQTVPQNTGGKNPDPWAKNLNEKDYELLCLDGTRKPVEEYANCHLARAPNHAVVTRKDKEACVHKILRQQQHLFGSNVADCSGNFCLFRSETKDLLFRDDTVCLAKLHDRNTYEKYLGEEYVKAVGNLRKCSTSSLLEACTFRRP",fasting blood glucose,diabetic db/db mice,238 ± 39 mg/dL
same,islets with 1 or more BRDU+ nuclei,db/db mice,35%
